Laboratory results: the supplement of paper PMC12042874
± gives the uncertainty stated by the source.

assay: amyloid nucleation score (Sup35N fusion, yeast selection) (log enrichment); library NNK3; higher = more nucleation; inactive = no reads after selection
Method in brief: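 Random libraries were run with three technical output replicates. In each, psi-negative yeast expressing Sup35N fused to peptides of 20 random codons were induced 24 hours with 100 μM copper sulfate and grown 7 days at 30°C on medium lacking adenine and uracil, and input and output plasmid inserts were Illumina-sequenced. The nucleation score is the DiMSum log enrichment of output over input reads, centred on the mode score of non-aggregating sequences, and sequences under 100 input reads were excluded.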

| Substance | amyloid nucleation score |
| --- | --- |
| LGIGVKYSTGWCFVIMSSAM | inactive |
| NYYLGETLA | inactive |
| DTDWGRMWQGGSVYGYAFCA | inactive |
| DLIQLDALWDVRTHWTWGTP | inactive |
| TYTYIGIKAFCDLYRSKMGV | inactive |
| ESDAFKLCAYDLNIMNISRF | inactive |
| LYNGGI | inactive |
| RTRTCRYFLIVYSVVCLMSI | inactive |
| TATYKSYCTL | inactive |
| IGVIWRFVLWSGPRTDSQVS | inactive |
| GVSSCFWSSFEQKFMKLSSV | inactive |
| RNLSLDLT | inactive |
| HHYLTHNRLVIKHHYRKYYD | inactive |
| TTLMMGTEPGLDTRLSSLCY | inactive |
| TVACNVFYQLCVE | inactive |
| KLRFKLRSLVNNNCGVVTRA | inactive |
| HLNTSLETLKVLMVTQPTGN | inactive |
| DVGAPCGRFRPHFTNTCLDV | inactive |
| ISWWAMCACSARKVRF | inactive |
| SVLRYE | inactive |
| RGPFGLYSLDILLVSQVFRR | 0.502 ± 0.23 |
| FYIKVVNPCIPYT | inactive |
| QYLFCVVGGWIVRYLWPWML | inactive |

| Substance | amyloid nucleation score |
| --- | --- |
| SFHTSGSNKGYCCGVMWMDK | inactive |
| VFSEWYVFHGQEVSTIHCAH | inactive |
| LFCLKIKLEAERRYLQGLRH | 1.72 ± 0.09 |
| AWKTFFVIYSS | 0.406 ± 0.19 |
| TQGSLTILLGLVTEMLCAYS | inactive |
| RSFRSKPKYLLTSDTCWSLT | inactive |
| FRYVVHTESYTIESVEVIR | 1.22 ± 0.094 |
| DQGLNC | inactive |
| FVWNMFSASLIKI | inactive |
| FFLAFKEQPRAYLISISTH | inactive |
| VRLSRAVILLAVIHLRWGLT | inactive |
| VSIKSRLRCLSVVQDNSRCV | inactive |
| IGHSTTYHKRQECSLVQWSS | inactive |
| LNYTEASYSLTGHTISISTV | -0.156 ± 1.5 |
| AGVDWQILV | inactive |
| STKPFSYYCLRYHRTVTALL | inactive |
| IEPIECTMA | inactive |
| RFRHGDTGSTFRCWCFVS | inactive |
| VHYWCGTQVVA | inactive |
| RVQIKVDGVSVHTDFSDWRS | 1.8 ± 0.086 |
| YRVVC | -0.543 ± 1.5 |
| YGYFHTRGYVAFE | inactive |
| PTKRYVKSYLISCVFIISHP | inactive |

| Substance | amyloid nucleation score |
| --- | --- |
| RNTGKAVHFCNRVYDSSMSM | -0.1 ± 0.6 |
| CMRSESCVVPRNNKFFLLSG | -0.361 ± 0.96 |
| KRFTGSK | inactive |
| CMFSPPCDLRGETVLRRPSL | 0.143 ± 0.62 |
| NCNVPRSHGGGFLTYTLMRE | inactive |
| VYDWRGRVGD | inactive |
| FMGADVAQRMFYKSANGCEW | inactive |
| AVSRDCELYKVEYYLVQ | inactive |
| RHLDNFNINVTLNLSFRVGM | 2.52 ± 0.089 |
| CVYFGRVNFTVGLLPSLNGF | 1.46 ± 0.14 |
| YCFSFAISCNDMRLFFLVNV | inactive |
| AQILYYLYYT | inactive |
| TCRMVRGSMMDSAVV | inactive |
| NIALFEILSSGIIVSNSNER | inactive |
| VFCSSDTAFPEGTTVSSRSR | inactive |
| AHGTMGGNYGRNVQLDDRLN | inactive |
| LSSLYLCCYACPNMLLI | 1.58 ± 0.11 |
| IEFLFMYTWWAVLNSGSK | 0.999 ± 0.2 |
| NVDDLGFLFIVDAYINCHFR | 1.58 ± 0.12 |
| LLVRMILNYKELLVTAILQV | inactive |
| VHGPKNCWKCDFKER | inactive |
| PLYQSYYHLEPSCDWCYSSR | -0.144 ± 0.28 |
| LRLNKLCEVFAPLTSVLAGT | inactive |

| Substance | amyloid nucleation score |
| --- | --- |
| SDFRTRTNIQYLQYKNNSSP | inactive |
| GLERLMDPLGNHRVRGDRVG | inactive |
| RCYKKVYLMLAVRLAPFGLG | inactive |
| NFLFMCSPYYLWIFDPGCYL | 2.8 ± 0.074 |
| LRGDGLMIVIVVWCIYGYLC | inactive |
| RLFRWMPDNVTGRWMVYAWF | inactive |
| KANFNVSVGKSVHATCLLTL | inactive |
| WPLRGRSMLQWLSCHIQWAG | inactive |
| SRSLIRINWFRGKKLCYGFE | inactive |
| FCFSSVEKNWLQRVMFLRVS | inactive |
| RFTMWRNDHC | 0.421 ± 0.38 |
| TIMAFIIAIRSLDRCQSSGM | inactive |
| KLRVFV | inactive |
| WSTPDFRGLHYSTVFITIFA | 0.194 ± 0.51 |
| ISRDGVRCEVWMWPWPREPA | inactive |
| MSKHF | inactive |
| PTVKKLYMQLFLSPCISSEG | inactive |
| YPLFECSDAPSQDNDTMLTR | inactive |
| YGNVIFRFVRADERI | 0.314 ± 0.35 |
| DGPHLPDHGGLM | inactive |
| VYCLSHNCMITSDNVRSIIF | inactive |
| QSMWH | inactive |
| FWGMLVEYLVNSQCYIKFE | inactive |

| Substance | amyloid nucleation score |
| --- | --- |
| YWLMKALQIWHSENRFRYIE | inactive |
| LYSLVFWNDSSCRSRLVTWF | inactive |
| ALNDLLAYSLSSKSFSYNWI | inactive |
| LGRCFVFMRTVCFDSA | inactive |
| SHPYLT | 0.071 ± 0.35 |
| VYRCVFWDVCAWCFKFR | 0.778 ± 0.14 |
| LKCSLLYCRCRPGYQIAGT | inactive |
| MSESTITLPWIAGIAWDEKL | inactive |
| VRMFRDLLYPAEYLS | inactive |
| IGDMSLLLTCGGWSLIQLQA | inactive |
| RNIYM | inactive |
| RRLQV | inactive |
| HSLVVNSSSERRYG | inactive |
| EGSYVYIKDYI | inactive |
| VSSRECMLRPLPDTKTRLAA | inactive |
| ESSLWYI | inactive |
| GDTAPNSSTISLTVFFPLFA | 0.697 ± 0.21 |
| IISHKQRSRVIVCSGS | inactive |
| IGYVMFGTSSSAFRITYISK | inactive |
| VMVRTNMCR | inactive |
| LYPVTKR | inactive |
| GAHWNASSHICGRKD | inactive |
| TPKLAALFS | -0.497 ± 1.3 |

| Substance | amyloid nucleation score |
| --- | --- |
| LWRLRAIWVNNVMAVRKFVG | -0.68 ± 1 |
| FARVRVNISFPISKSFCNIM | 2.34 ± 0.083 |
| NTINVSPVLIDN | inactive |
| YFYGLQWPCD | inactive |
| LLDFVNGFYCFDFTGTFNIY | 0.993 ± 0.15 |
| CRRVMVILMH | inactive |
| CYLISILPLGLFIDSLAWVT | inactive |
| ILYLRVYITFVLIGNLEGFR | inactive |
| WVDYLYNSLESIRMCWANVY | inactive |
| WLLDSRDGMRRKRAPRRVFA | inactive |
| GFGESGNR | inactive |
| SSIGVGSFCSVRCLYDHDTS | inactive |
| SWTSVSFRRMLMDSSR | inactive |
| QLAKG | inactive |
| FRITNWLSLYDKTEISHASI | inactive |
| VDLYV | inactive |
| VFHRQERMLTPCT | inactive |
| MIVWTHNYLEGELFVSLPLV | inactive |
| YVSQQYCWPGFFHRVHTGKS | inactive |
| NLVWICFFNGRNYLSMRDRA | 1.34 ± 0.15 |
| NHMLCCTCDFHYCVRGWKSF | 0.64 ± 0.33 |
| QCRHPGSRP | inactive |
| VSFEYTGEYLCSNVRATDLL | 0.366 ± 0.69 |

| Substance | amyloid nucleation score |
| --- | --- |
| AVNFCMLWGVYASSQKNLGF | 0.585 ± 0.32 |
| YYWRMYCS | inactive |
| SLSSWLWVVLIVHCMSGRNS | inactive |
| SCDLELSNLELRVWRDTVRK | 1.8 ± 0.069 |
| YGHSRWSKISHRSSACLFGS | inactive |
| LLRFP | inactive |
| LLECNRTMPQLMVWEVFCSV | inactive |
| SRCNVYKKVVAYVLRRLTPE | 0.166 ± 0.66 |
| VELSNVFWGERYIKGLLTDL | inactive |
| RGGRTSVLLNRSMLVEK | inactive |
| YYDYLRWLLEHIHFCTWGPY | inactive |
| CGVSLDRWSNMQ | inactive |
| SSKLFL | inactive |
| SVARNSHYATLHKELQHVMY | inactive |
| AVWTCIGWDERTKMLYKFIR | inactive |
| SYYVICGTLMIIVVYFSSYN | 1.02 ± 0.093 |
| TFDSYPFVKGGISWPNMKYL | inactive |
| HGSYLMRILR | inactive |
| WTRVFLRTKGRSEFLLRWPL | inactive |
| ASLTGNFYTGWRFLALATMC | inactive |
| LQSCKATPRLCFEATLGRGV | -0.992 ± 2.5 |
| ITDYMIQF | -0.66 ± 0.7 |
